Target: the molecule itself
Assay: cross-linking; coelomocytes infected with 10^8 CFU/ml AJ01 for 3 h; Triton X-100 insoluble pellet cross-linked 30 min at room temperature (DSS by the legend); Western blot

B1: AjCASP-1 (cysteine-aspartic specific protease-1 of Apostichopus japonicus), endogenous (enzyme, UniProt A0A6G5QC75 1-299, looked up)
chain: MAVADIPSSDYVFRERKRPIRGDEPSAIHFNLRYDMQQQTRGFAHIFNNDIFQKMDDRKGTRKDRDNLKETFTNLGFKVRVHDDCTASEIRDILLEASKVDHSDFDCFLCVFLTHGDDGIIYGSDGEPESFKGNGSVHSTNRTWLRLNDDVFDIFRGNNCSTLIGKPKIFIIQACRGGTAEFSAMIGSAATDYEEPLETSVGVKVTIPTEADFLISYSSSEGYYSFRELYKGTWFIQDLTRVLNEFGRNGDFIRMLTVVNKLVSERAIQGSGKPELEGKKQMPCFLSKLTRQLHLTAQT
notes: AjCASP-1, caspase-1 of Apostichopus japonicus, MH807451; 34 kDa monomer, self-cleaved to p20 (25 kDa) after AJ01 infection; In infected cells both the uncleaved and the self-cleaved form are present; also called AjCaspase-1; source: endogenous, A. japonicus coelomocyte lysate (uninfected or AJ01-infected)
- stoichiometry N: 2

Source: paper PMC11932488, “Lytic coelomocyte death is tuned by cleavage but not phosphorylation of MLKL in echinoderms” (PLOS Pathogens, 2025)
